Test results reported in US20230038638A1, “COMPLEMENT FACTOR I-RELATED COMPOSITIONS AND METHODS” (published 2023).

Target: T1, human C4b (human) (UniProt P0C0L4)
T1 sequence: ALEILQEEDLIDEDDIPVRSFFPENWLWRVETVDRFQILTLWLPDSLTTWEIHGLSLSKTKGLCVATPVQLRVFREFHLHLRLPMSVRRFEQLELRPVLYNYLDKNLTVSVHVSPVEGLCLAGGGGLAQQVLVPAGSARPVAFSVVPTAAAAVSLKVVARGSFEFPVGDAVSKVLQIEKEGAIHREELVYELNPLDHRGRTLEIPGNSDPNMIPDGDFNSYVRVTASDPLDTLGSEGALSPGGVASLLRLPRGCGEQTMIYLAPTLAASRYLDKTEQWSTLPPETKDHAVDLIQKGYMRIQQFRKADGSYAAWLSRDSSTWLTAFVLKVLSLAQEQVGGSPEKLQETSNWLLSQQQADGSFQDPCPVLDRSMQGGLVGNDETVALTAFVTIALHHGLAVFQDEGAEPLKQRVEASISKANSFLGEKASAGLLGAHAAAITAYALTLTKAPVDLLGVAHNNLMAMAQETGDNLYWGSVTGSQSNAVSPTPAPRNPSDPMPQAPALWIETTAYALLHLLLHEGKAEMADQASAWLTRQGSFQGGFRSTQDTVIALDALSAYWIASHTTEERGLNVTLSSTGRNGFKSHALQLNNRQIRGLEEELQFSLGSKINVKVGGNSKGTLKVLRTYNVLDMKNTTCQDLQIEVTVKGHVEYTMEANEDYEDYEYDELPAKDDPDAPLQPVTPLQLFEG

Row | Substance | C4c EC50 | C4c EC50 (nM)
1 | CFI-HSA variant F464A (enzyme) | > 1000 nM | –
2 | CFI-HSA variant E457G; E461Q; F464Y; N531G; GGSSGG (SEQ ID NO: 6); CR1 (ccp15-17) (from UniProt P17927) (enzyme) | – | 38.4 nM
3 | CFI-HSA variant E457G; E461Q; F464Y (enzyme) | 40.3 nM | –
4 | CFI-HSA variant N531G; E530Y (enzyme) | – | 38.2 nM
5 | CFI-HSA variant Y408L; E457G; R462K (enzyme) | 142 nM | –
6 | CFI-HSA variant Y408L; N531G; R462K (enzyme) | 126 nM | –
7 | CFI-HSA variant T407G; E457G (enzyme) | 545 nM | –
8 | CFI-HSA variant E457G; E530Y (enzyme) | – | 332 nM
9 | CFI-HSA variant Y408L; N531G; F464Y (enzyme) | 66.5 nM | –
10 | CFI-HSA variant Y408L; N531G; R462K; F464Y (enzyme) | 98.2 nM | –
11 | CFI-HSA variant T346K; Y408L; N531G (enzyme) | 209 nM | –
12 | CFI-HSA variant N531G; E461Q; R462K; F464Y (enzyme) | 24 nM | –
13 | CFI-HSA variant T407G (enzyme) | 329 nM | –
14 | CFI-HSA variant T407G; Y408L (enzyme) | 435 nM | –
15 | CFI-HSA variant E461Q; R462K (enzyme) | 95.9 nM | –
16 | CFI-HSA variant Y408L; E457G; E530Y (enzyme) | – | 26.5 nM
17 | CFI-HSA variant Y408L; N531G; WT; GGSSGG (SEQ ID NO: 6); CR1(ccp15-17) (enzyme) | 40.9 nM | –

Row | Substance | C4c EC50 | C4c EC50 (nM)
18 | CFI-HSA variant E457G; F464Y (enzyme) | 82.3 nM | –
19 | CFI-HSA variant E457G; Y408L (enzyme) | 108 nM | –
20 | CFI-HSA variant E457G; R462K; F464Y (enzyme) | 84.6 nM | –
21 | CFI-HSA variant N531G; E461Q; F464Y (enzyme) | 28.8 nM | –
22 | CFI-HSA variant Y408L; E457G; E461Q (enzyme) | 36.1 nM | –
23 | CFI-HSA variant Y408L; E457G; N531G; WT; GGSSGG (SEQ ID NO: 6); CR1(ccp15-17) (enzyme) | 113 nM | –
24 | CFI-HSA variant E457G; N531G; E461Q; R462K; F464Y; GGSSGG (SEQ ID NO: 6); CR1 (ccp1-3) (from UniProt P17927) (enzyme) | – | > 1000 nM
25 | CFI-HSA variant T407G; Y408L; E457G (enzyme) | 300 nM | –
26 | CFI-HSA variant Y408L; E530Y (enzyme) | – | > 1000 nM
27 | CFI-HSA variant E457G; R462K (enzyme) | 52.7 nM | –
28 | CFI-HSA variant Y408L; N531G; E461Q; F464Y (enzyme) | 46.7 nM | –
29 | CFI-HSA variant Y408L; E457G; N531G; E530Y (enzyme) | – | 35.4 nM
30 | CFI-HSA variant N531G; R462K (enzyme) | 51.2 nM | –
31 | CFI-HSA variant E461Q; F464Y (enzyme) | 123 nM | –
32 | CFI-HSA variant Y408L; E530K; N531G (enzyme) | 111 nM | –
33 | CFI-HSA variant Y408L; E461Q; F464Y (enzyme) | 105 nM | –
